T1: ADF-1 (D. funebris) (Drosophila funebris, UniProt E2DD98 1-262)
T1 sequence: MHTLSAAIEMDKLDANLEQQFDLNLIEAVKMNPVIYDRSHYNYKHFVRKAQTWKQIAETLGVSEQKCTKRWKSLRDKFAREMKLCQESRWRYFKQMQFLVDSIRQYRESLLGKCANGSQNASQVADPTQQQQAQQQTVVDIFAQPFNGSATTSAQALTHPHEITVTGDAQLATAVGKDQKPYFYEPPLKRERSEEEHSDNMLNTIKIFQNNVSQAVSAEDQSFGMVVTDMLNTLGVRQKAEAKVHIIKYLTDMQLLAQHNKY

T2: ADF-1 (D. melanogaster) (Drosophila melanogaster, UniProt P05552 1-262)
T2 sequence: T1 sequence with S5T, M31L, S63P, N120S, S122N, T128S, G167S

B1: Oligo 4 (dsDNA)
DNA 1: TCGCTGTCTCAGTCGACGCTATTGAT
DNA 2: ATCAATAGCGTCGACTGAGACAGCGA
B2: Oligo 2 (dsDNA)
DNA 1: ATCGACGTCAACGGCAGCGTTCACAT
DNA 2: ATGTGAACGCTGCCGTTGACGTCGAT
B3: Oligo 3 (dsDNA)
DNA 1: TCAATGTCGCCGTCGCTGTCTCAGTCG
DNA 2: CGACTGAGACAGCGACGGCGACATTGA
B4: Oligo 1 (dsDNA)
DNA 1: ATCGACGTCGGCGTCGACATCGTGA
DNA 2: TCACGATGTCGACGCCGACGTCGAT

Substitutions are numbered along the chain they refer to.

As a reminder, the Kd is the constant that tells how readily two partners part at equilibrium.

For the first series, the target named is T1, ADF-1 (D. funebris). As to the kind of experiment: EMSA.
In turn, B1 showed a Kd of 1.86 µM.

Molecule B2 gave a Kd of 5.05 µM. Against the preceding molecule, the Kd is about 2.7-fold higher.

For B3, the dissociation constant (Kd) came to 28.3 µM.

Regarding B4, the Kd is 1.95 µM.

Another series has as its target T2, ADF-1 (D. melanogaster). As to the kind of experiment: EMSA. In general terms: Mobility shift assays separate free from complexed probe on a gel.
For the molecule B1, the affinity, expressed as Kd, was 1.63 µM.

For B2, the Kd was 4.07 µM.

As for B3, the Kd amounted to 27.5 µM.

Consider B4, for which binding was characterised by a dissociation constant (Kd) of 1.98 µM. This Kd lies about 14-fold lower than the previous one.

Values taken from publication PMC2965233.
